Measurements taken from patent US20230365642A1 (MEDICENNA THERAPEUTICS, published 2023).

Legend:
[1] = biological target: T1, IL4R Type-II (IL4Rα chain with IL13Rα1), on cells (UniProt P24394 26-825; P78552 22-427, limits assumed); assay: cell-based or functional assay
T1 sequence (looked up) 1: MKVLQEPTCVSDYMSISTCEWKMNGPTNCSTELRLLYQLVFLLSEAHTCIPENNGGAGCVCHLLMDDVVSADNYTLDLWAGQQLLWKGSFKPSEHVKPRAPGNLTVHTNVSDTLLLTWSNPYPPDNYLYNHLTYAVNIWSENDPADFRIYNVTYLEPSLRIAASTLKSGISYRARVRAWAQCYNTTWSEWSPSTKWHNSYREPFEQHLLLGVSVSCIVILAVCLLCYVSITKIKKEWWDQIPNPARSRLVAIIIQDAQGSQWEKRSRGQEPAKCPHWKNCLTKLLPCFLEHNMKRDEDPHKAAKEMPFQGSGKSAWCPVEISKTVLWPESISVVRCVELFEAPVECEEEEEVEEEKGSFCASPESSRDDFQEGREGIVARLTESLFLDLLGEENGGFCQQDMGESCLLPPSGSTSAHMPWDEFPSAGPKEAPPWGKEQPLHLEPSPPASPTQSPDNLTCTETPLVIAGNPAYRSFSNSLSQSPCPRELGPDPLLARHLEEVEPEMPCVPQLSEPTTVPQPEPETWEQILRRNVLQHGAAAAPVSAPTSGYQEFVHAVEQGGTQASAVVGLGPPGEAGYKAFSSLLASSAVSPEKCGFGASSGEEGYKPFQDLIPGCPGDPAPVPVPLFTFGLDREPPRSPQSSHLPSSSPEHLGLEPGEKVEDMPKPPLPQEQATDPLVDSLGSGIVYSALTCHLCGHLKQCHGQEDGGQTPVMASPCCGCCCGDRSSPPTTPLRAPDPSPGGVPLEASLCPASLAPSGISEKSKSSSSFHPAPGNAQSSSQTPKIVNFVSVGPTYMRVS
T1 sequence (looked up) 2: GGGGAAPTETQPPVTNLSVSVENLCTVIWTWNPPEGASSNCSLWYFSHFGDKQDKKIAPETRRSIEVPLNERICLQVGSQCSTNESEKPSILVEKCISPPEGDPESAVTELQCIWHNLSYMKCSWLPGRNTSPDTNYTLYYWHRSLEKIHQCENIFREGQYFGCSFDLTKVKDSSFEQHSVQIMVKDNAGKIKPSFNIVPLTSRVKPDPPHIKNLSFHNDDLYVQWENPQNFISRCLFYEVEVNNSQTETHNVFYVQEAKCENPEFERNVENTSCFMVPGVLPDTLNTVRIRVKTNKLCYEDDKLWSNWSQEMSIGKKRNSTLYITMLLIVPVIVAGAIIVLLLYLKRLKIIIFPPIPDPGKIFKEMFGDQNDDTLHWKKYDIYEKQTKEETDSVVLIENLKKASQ

[2] = biological target: T2, IL13Rα1 Protein, Mouse, Recombinant, His Tag (mouse, UniProt O09030 26-340, limits assumed); assay: ELISA, receptor coated on plate, anti-human IgG Fc detection
T2 construct: also called mouse IL13Rα1; mIL13Rα1; not shown: His tag
T2 sequence (looked up): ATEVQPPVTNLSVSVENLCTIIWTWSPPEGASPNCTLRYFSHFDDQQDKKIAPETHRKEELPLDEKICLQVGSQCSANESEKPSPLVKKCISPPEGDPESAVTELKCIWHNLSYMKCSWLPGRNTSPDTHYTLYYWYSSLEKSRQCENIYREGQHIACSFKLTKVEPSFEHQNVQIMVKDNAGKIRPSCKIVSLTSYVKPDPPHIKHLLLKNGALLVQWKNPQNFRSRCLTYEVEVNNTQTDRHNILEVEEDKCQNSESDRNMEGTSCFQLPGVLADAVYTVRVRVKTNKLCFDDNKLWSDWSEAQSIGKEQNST

[3] = biological target: T3, IL13Rα Protein, Human, Recombinant, His Tag (human IL13Rα1) (human, UniProt P78552 22-343, limits assumed); assay: as above
T3 construct: also called hIL13Rα1; IL13Ra1; not shown: His tag
T3 sequence (looked up): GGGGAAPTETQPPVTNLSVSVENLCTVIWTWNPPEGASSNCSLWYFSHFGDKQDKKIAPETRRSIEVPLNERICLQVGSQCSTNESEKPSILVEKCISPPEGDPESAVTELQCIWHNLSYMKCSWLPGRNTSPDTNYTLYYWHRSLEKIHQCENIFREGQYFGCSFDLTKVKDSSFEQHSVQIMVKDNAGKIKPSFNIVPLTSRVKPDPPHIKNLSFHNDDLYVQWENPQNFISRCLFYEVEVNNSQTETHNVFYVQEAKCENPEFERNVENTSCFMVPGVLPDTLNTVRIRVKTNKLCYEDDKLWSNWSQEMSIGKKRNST

[4] = biological target: T1, IL4R Type-II (IL4Rα chain with …); assay: cell-based or functional assay; remark: listed apart in the source
[5] = biological target: T1, IL4R Type-II (IL4Rα chain with …); assay: cell-based or functional assay; remark: listed apart in the source

B1: Fc4-MDNA413 (1:2) (Fc fusion)
chain: APPCPSCPAPEFLGGPSVFLFPPKPKDTLMISRTPEVTCVVVDVSQEDPEVQFNWYVDGVEVHNAKTKPREEQFNSTYRVVSVLTVLHQDWLNGKEYKCKVSNKGLPSSIEKTISKAKGQPREPQVYTLPPSQEEMTKNQVSLTCLVKGFYPSDIAVEWESNGQPENNYKTTPPVLDSDGSFFLYSRLTVDKSRWQEGNVFSCSVMHEALHNHYTQKSLSLSPGKGGGSGSPGPVPPSTAVRALIEELINITQNQKAPLCNGSMVWSINRTAGMYCAALESLINVSGCSAIEKTQDMLSGFCPHKVSAGQFSSLHVRSSKIEVAQFVKDLLFHLRTLFREGQFN
notes: also called Fc4-MDNA413^R39/Q111 (1:2)
[1]
  IL-13 Mediated M2 polarization CD206 (IC50 nM), first donor: 0.48 nM
  IL-13 Mediated M2 polarization CD209 (IC50 nM), first donor: 1.6 nM
  IL-13 Mediated M2 polarization CD209 (IC50 nM), second donor: 0.492 nM
[2]
  binding result: binds
[3]
  binding result: binds
[4]
  IL4 EC50 (nM); IL-4 competitive assay, HEK-Blue IL-4/IL-13 reporter cells: 7.5 nM
  IL 13 EC50 (nM); IL-13 competitive assay, HEK-Blue IL-4/IL-13 reporter cells: 37.8 nM
[5]
  IL-4 Mediated M2 polarization CD206 (IC50 nM), second donor: 2.01 nM
  IL-4 Mediated M2 polarization CD209 (IC50 nM), first donor: 0.59 nM
  IL-4 Mediated M2 polarization CD209 (IC50 nM), second donor: 2.3 nM
